Patent publication US11440969B2, “Use of human epididymis protein 4 (HE4) for assessing responsiveness of MUC 16-positive cancer treatment” (Genentech, Inc., priority 2016, dated 2022)

Assay: Safety of DMUC5754A in patients: related adverse events, DLT, MTD/RP2D (NCI CTCAE v4.0)
Type: in vivo, human
Conditions: for On study PN = No, patients n (%) / On study PN = Yes, patients n (%) / Median time to onset of first PN on study: q1w dosing
Procedure: This multicenter, open-label, dose-escalation study was designed to identify the recommended Phase II dose (RP2D) of DMUC5754A in patients with platinum-resistant OC or unresectable pancreatic cancer. In the single-agent dose escalation stage utilizing a 3+3 enrollment scheme, patients were given intravenous DMUC5754A (Genentech Inc.) 0.3-3.2 mg/kg every 3 weeks (q3w) to evaluate the safety, tolerability, and pharmacokinetics of DMUC5754A. Following determination of the maximum tolerated dose (MTD), dose-expansion cohorts were enrolled at the RP2D of 2.4 mg/kg to further characterize the safety and preliminary clinical efficacy of DMUC5754A.
Dosing on a weekly (qlw) schedule was also evaluated at the RP2D, employing a 3+3 design to determine the MTD of weekly dosing, followed by a cohort expansion to further characterize the safety and activity of q1w dosing.
Safety was evaluated according to NCI CTCAE v4.0. […] The maximum tolerated dose (MTD) was defined as the dose at which ≤1 of 6 patients at an assigned dose with protocol-defined DLT. Patients who experienced a DLT or adverse event (AE) meeting DLT criteria after the DLT assessment window were allowed to delay dosing for up to 2 weeks or undergo a dose reduction.

[1] = q1w patients, over all dose levels

B1: DMUC5754A: antibody-drug conjugate: humanized IgG1 anti-MUC16 monoclonal antibody and MMAE, linked through protease labile linker maleimidocaproyl-valine-citrulline-p-aminobenzyloxycarbonyl (conjugate, chains of the INN, looked up)
VH: EVQLVESGGGLVQPGGSLRLSCAASGYSITNDYAWNWVRQAPGKGLEWVGYISYSGYTTYNPSLKSRFTISRDTSKNTLYLQMNSLRAEDTAVYYCARWTSGLDYWGQGTLVTVSS
VL: DIQMTQSPSSLSASVGDRVTITCKASDLIHNWLAWYQQKPGKAPKLLIYGATSLETGVPSRFSGSGSGTDFTLTISSLQPEDFATYYCQQYWTTPFTFGQGTKVEIK
modifications: MMAE via mc-vc-PABC linker
protocol-defined DLTs (3.2 mg/kg q3w, OC, 1 Grade 4 hypocalcaemia and 1 Grade 3 uric acid increase, in 2 of 3 DLT-evaluable patients): 2 | Alopecia (related AE), patients n (%) (q1w 0.8 mg/kg (n = 3)): 0 | Anemia (related AE), patients n (%) (q1w 0.8 mg/kg (n = 3)): 1 (33.3%) | Any adverse events (related), patients n (%) (q1w 0.8 mg/kg (n = 3)): 2 (66.7%) | Arthralgia (related AE), patients n (%) (q1w 0.8 mg/kg (n = 3)): 0 | Aspartate aminotransferase increased (related AE), patients n (%) (q1w 0.8 mg/kg (n = 3)): 0 | Constipation (related AE), patients n (%) (q1w 0.8 mg/kg (n = 3)): 1 (33.3%) | Decreased appetite (related AE), patients n (%) (q1w 0.8 mg/kg (n = 3)): 0 | Diarrhea (related AE), patients n (%) (q1w 0.8 mg/kg (n = 3)): 0 | Fatigue (related AE), patients n (%) (q1w 0.8 mg/kg (n = 3)): 0 | Headache (related AE), patients n (%) (q1w 0.8 mg/kg (n = 3)): 0 | Hypomagnesaemia (related AE), patients n (%) (q1w 0.8 mg/kg (n = 3)): 1 (33.3%) | Hyponatremia (related AE), patients n (%) (q1w 0.8 mg/kg (n = 3)): 0 | Nausea (related AE), patients n (%) (q1w 0.8 mg/kg (n = 3)): 0 | Neutropenia (related AE), patients n (%) (q1w 0.8 mg/kg (n = 3)): 1 (33.3%) | Peripheral neuropathy (related AE), patients n (%) (q1w 0.8 mg/kg (n = 3)): 0 | Vomiting (related AE), patients n (%) (q1w 0.8 mg/kg (n = 3)): 0 | Alopecia (related AE), patients n (%) (q1w 1.1 mg/kg (n = 7)): 1 (14.3%) | Anemia (related AE), patients n (%) (q1w 1.1 mg/kg (n = 7)): 3 (42.9%) | Any adverse events (related), patients n (%) (q1w 1.1 mg/kg (n = 7)): 7 (100.0%) | Arthralgia (related AE), patients n (%) (q1w 1.1 mg/kg (n = 7)): 2 (28.6%) | Aspartate aminotransferase increased (related AE), patients n (%) (q1w 1.1 mg/kg (n = 7)): 2 (28.6%) | Constipation (related AE), patients n (%) (q1w 1.1 mg/kg (n = 7)): 0 | Decreased appetite (related AE), patients n (%) (q1w 1.1 mg/kg (n = 7)): 1 (14.3%) | Diarrhea (related AE), patients n (%) (q1w 1.1 mg/kg (n = 7)): 3 (42.9%) | Fatigue (related AE), patients n (%) (q1w 1.1 mg/kg (n = 7)): 2 (28.6%) | Headache (related AE), patients n (%) (q1w 1.1 mg/kg (n = 7)): 2 (28.6%) | Hypomagnesaemia (related AE), patients n (%) (q1w 1.1 mg/kg (n = 7)): 2 (28.6%) | Hyponatremia (related AE), patients n (%) (q1w 1.1 mg/kg (n = 7)): 1 (14.3%) | Nausea (related AE), patients n (%) (q1w 1.1 mg/kg (n = 7)): 4 (57.1%) | Neutropenia (related AE), patients n (%) (q1w 1.1 mg/kg (n = 7)): 1 (14.3%) | Peripheral neuropathy (related AE), patients n (%) (q1w 1.1 mg/kg (n = 7)): 1 (14.3%) | Vomiting (related AE), patients n (%) (q1w 1.1 mg/kg (n = 7)): 2 (28.6%) | Alopecia (related AE), patients n (%) (q1w 1.4 mg/kg (n = 7)): 2 (28.6%) | Anemia (related AE), patients n (%) (q1w 1.4 mg/kg (n = 7)): 2 (28.6%) | Any adverse events (related), patients n (%) (q1w 1.4 mg/kg (n = 7)): 5 (71.4%) | Arthralgia (related AE), patients n (%) (q1w 1.4 mg/kg (n = 7)): 1 (14.3%) | Aspartate aminotransferase increased (related AE), patients n (%) (q1w 1.4 mg/kg (n = 7)): 1 (14.3%) | Constipation (related AE), patients n (%) (q1w 1.4 mg/kg (n = 7)): 2 (28.6%) | Decreased appetite (related AE), patients n (%) (q1w 1.4 mg/kg (n = 7)): 3 (42.9%) | Diarrhea (related AE), patients n (%) (q1w 1.4 mg/kg (n = 7)): 0 | Fatigue (related AE), patients n (%) (q1w 1.4 mg/kg (n = 7)): 2 (28.6%) | Headache (related AE), patients n (%) (q1w 1.4 mg/kg (n = 7)): 0 | Hypomagnesaemia (related AE), patients n (%) (q1w 1.4 mg/kg (n = 7)): 0 | Hyponatremia (related AE), patients n (%) (q1w 1.4 mg/kg (n = 7)): 1 (14.3%) | Nausea (related AE), patients n (%) (q1w 1.4 mg/kg (n = 7)): 4 (57.1%) | Neutropenia (related AE), patients n (%) (q1w 1.4 mg/kg (n = 7)): 1 (14.3%) | Peripheral neuropathy (related AE), patients n (%) (q1w 1.4 mg/kg (n = 7)): 2 (28.6%) | Vomiting (related AE), patients n (%) (q1w 1.4 mg/kg (n = 7)): 5 (71.4%) | Alopecia (related AE), patients n (%) (q1w 1.6 mg/kg (n = 6)): 2 (33.3%) | Anemia (related AE), patients n (%) (q1w 1.6 mg/kg (n = 6)): 2 (33.3%) | Any adverse events (related), patients n (%) (q1w 1.6 mg/kg (n = 6)): 6 (100.0%) | Arthralgia (related AE), patients n (%) (q1w 1.6 mg/kg (n = 6)): 0 | Aspartate aminotransferase increased (related AE), patients n (%) (q1w 1.6 mg/kg (n = 6)): 1 (16.7%) | Constipation (related AE), patients n (%) (q1w 1.6 mg/kg (n = 6)): 0 | Decreased appetite (related AE), patients n (%) (q1w 1.6 mg/kg (n = 6)): 1 (16.7%) | Diarrhea (related AE), patients n (%) (q1w 1.6 mg/kg (n = 6)): 2 (33.3%) | Fatigue (related AE), patients n (%) (q1w 1.6 mg/kg (n = 6)): 3 (50.0%) | Headache (related AE), patients n (%) (q1w 1.6 mg/kg (n = 6)): 1 (16.7%) | Hypomagnesaemia (related AE), patients n (%) (q1w 1.6 mg/kg (n = 6)): 2 (33.3%) | Hyponatremia (related AE), patients n (%) (q1w 1.6 mg/kg (n = 6)): 1 (16.7%) | Nausea (related AE), patients n (%) (q1w 1.6 mg/kg (n = 6)): 3 (50.0%) | Neutropenia (related AE), patients n (%) (q1w 1.6 mg/kg (n = 6)): 3 (50.0%) | Peripheral neuropathy (related AE), patients n (%) (q1w 1.6 mg/kg (n = 6)): 1 (16.7%) | Vomiting (related AE), patients n (%) (q1w 1.6 mg/kg (n = 6)): 2 (33.3%) | Alopecia (related AE), patients n (%) (q1w All Patients (n = 23)): 5 (21.7%) | Anemia (related AE), patients n (%) (q1w All Patients (n = 23)): 8 (34.8%) | Any adverse events (related), patients n (%) (q1w All Patients (n = 23)): 20 (87.0%) | Arthralgia (related AE), patients n (%) (q1w All Patients (n = 23)): 3 (13.0%) | Aspartate aminotransferase increased (related AE), patients n (%) (q1w All Patients (n = 23)): 4 (17.4%) | Constipation (related AE), patients n (%) (q1w All Patients (n = 23)): 3 (13.0%) | Decreased appetite (related AE), patients n (%) (q1w All Patients (n = 23)): 5 (21.7%) | Diarrhea (related AE), patients n (%) (q1w All Patients (n = 23)): 5 (21.7%) | Fatigue (related AE), patients n (%) (q1w All Patients (n = 23)): 7 (30.4%) | Headache (related AE), patients n (%) (q1w All Patients (n = 23)): 3 (13.0%) | Hypomagnesaemia (related AE), patients n (%) (q1w All Patients (n = 23)): 5 (21.7%) | Hyponatremia (related AE), patients n (%) (q1w All Patients (n = 23)): 3 (13.0%) | Nausea (related AE), patients n (%) (q1w All Patients (n = 23)): 11 (47.8%) | Neutropenia (related AE), patients n (%) (q1w All Patients (n = 23)): 6 (26.1%) | Vomiting (related AE), patients n (%) (q1w All Patients (n = 23)): 9 (39.1%) | patients with AEs leading to treatment discontinuation (q1w cohorts, 3/23 patients): 13.0% | On study PN = No, patients n (%) (Prior neuropathy = No): 10 (43%) | On study PN = Yes, patients n (%) (Prior neuropathy = No): 2 (9%) | Median time to onset of first PN on study (Prior neuropathy = Yes): 190 days | On study PN = No, patients n (%) (Prior neuropathy = Yes): 9 (39%) | On study PN = Yes, patients n (%) (Prior neuropathy = Yes): 2 (9%) | Median time to onset of first PN on study (Total): 190 days | On study PN = No, patients n (%) (Total): 19 (83%) | On study PN = Yes, patients n (%) (Total): 4 (17%) | Drug-related SAE dehydration, patients (q1w patients): 1 | Drug-related SAE diarrhea, patients (q1w patients): 1 | Drug-related SAE nausea, patients (q1w patients): 1 | Drug-related SAE posterior reversible encephalopathy syndrome, patients (q1w patients): 1 | alopecia, related AE [1]: 21.7% | anemia, related AE [1]: 34.8% | decreased appetite, related AE [1]: 21.7% | diarrhea, related AE [1]: 21.7% | fatigue, related AE [1]: 30.4% | hypomagnesaemia, related AE [1]: 21.7% | nausea, related AE [1]: 47.8% | neutropenia, related AE [1]: 26.1% | vomiting, related AE [1]: 39.1% | Grade ≥3 related diarrhea (q1w patients, total): 8.7% | Grade ≥3 related hyponatraemia (q1w patients, total): 8.7% | Grade ≥3 related neutropenia (q1w patients, total): 17.4% | RP2D (q1w schedule): 1.4 mg/kg | Grade ≥3 related diarrhea, patients (q1w, at 1.4 mg/kg): 0 | Grade ≥3 related hyponatraemia, patients (q1w, at 1.4 mg/kg): 0 | Grade ≥3 related neutropenia, patients (q1w, at 1.4 mg/kg): 1 | MTD dose (q3w): 2.4 mg/kg | Alopecia (related AE), patients (q3w 0.3 mg/kg (n = 3)): 0 | Any adverse events (related), patients (q3w 0.3 mg/kg (n = 3)): 3 | Arthralgia (related AE), patients (q3w 0.3 mg/kg (n = 3)): 0 | Asthenia (related AE), patients (q3w 0.3 mg/kg (n = 3)): 0 | Decreased appetite (related AE), patients (q3w 0.3 mg/kg (n = 3)): 1 | Diarrhea (related AE), patients (q3w 0.3 mg/kg (n = 3)): 0 | Dysgeusia (related AE), patients (q3w 0.3 mg/kg (n = 3)): 0 | Fatigue (related AE), patients (q3w 0.3 mg/kg (n = 3)): 0 | Hypokalemia (related AE), patients (q3w 0.3 mg/kg (n = 3)): 0 | Hypomagnesaemia (related AE), patients (q3w 0.3 mg/kg (n = 3)): 1 | Hypophosphatemia (related AE), patients (q3w 0.3 mg/kg (n = 3)): 0 | Nausea (related AE), patients (q3w 0.3 mg/kg (n = 3)): 1 | Neutropenia (related AE), patients (q3w 0.3 mg/kg (n = 3)): 0 | Peripheral neuropathy (related AE), patients (q3w 0.3 mg/kg (n = 3)): 1
